This series deals with T1, rFimR (Porphyromonas gingivalis (ATCC 33277?)) (UniProt B2RJ77).
T1 sequence: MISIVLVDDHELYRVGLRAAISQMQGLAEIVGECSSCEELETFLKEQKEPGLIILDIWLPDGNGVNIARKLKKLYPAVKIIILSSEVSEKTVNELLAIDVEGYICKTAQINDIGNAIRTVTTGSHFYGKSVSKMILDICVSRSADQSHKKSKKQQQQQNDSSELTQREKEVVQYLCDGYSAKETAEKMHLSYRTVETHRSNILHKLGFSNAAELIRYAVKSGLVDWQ
The series is described as follows: EMSA. (A gel shift assay detects complexes by their altered migration in electrophoresis.)

Regarding “CAGATGGGTTGTTGCTCAAGGAGAACGTCGCCAATACCTAAGCAAGAAAAGAGGAACTGTTCCAGAAAATACTTGGGTTACTCCGGGTTCTGGTTTCGTTCCTACCAGCAGCACTTTCTAT (double strand) [mfa1 coding region (121 bp)]”, the binding entry was “no binding”.
Regarding “TGTAACGGGTTCTGCCTCGTTGTCTTTGTTACAAGCTGTCATAGCAAGAGCAGCAAGTCCCAACAAGAAAAACTTTGTTTTTTTCATCTCGTTTTTGTTTTAAAAGTGAATATTGTTTTCTAAAAATCTAATCTTTTCCCATTTAGAGATTGTCTTGCATATAGCGTCG (double strand) [fimA promoter (176 bp)]”, the binding result is recorded as “no binding”.

Source of the values: paper PMC1974823.
